Laboratory results taken from publication PMC6886522.

Tests used:
[1] = tested on: NC(=O)c1ncn([C@@H]2O[C@H](COP(=O)(O)O)[C@@H](O)[C@H]2O)c1N=CN[C@@H]1O[C@H](COP(=O)(O)O)[C@@H](O)[C@H]1O; test: purified protein
[2] = tested on: O=C(O)c1ccccc1N[C@@H]1O[C@H](COP(=O)(O)O)[C@@H](O)[C@H]1O; test: purified protein
[3] = substrate: NC(=O)c1ncn([C@@H]2O[C@H](COP(=O)(O)O)[C@@H](O)[C@H]2O)c1N=CN[C@@H]1O[C@H](COP(=O)(O)O)[C@@H](O)[C@H]1O; test: ProFAR isomerase steady-state kinetics; assay type: biochemical, Streptomyces sviceus
[4] = substrate: O=C(O)c1ccccc1N[C@@H]1O[C@H](COP(=O)(O)O)[C@@H](O)[C@H]1O; test: PRA isomerase steady-state kinetics; assay type: biochemical, Streptomyces sviceus
[5] = substrate: O=C(O)c1ccccc1N[C@@H]1O[C@H](COP(=O)(O)O)[C@@H](O)[C@H]1O; test: PRA isomerase steady-state kinetics; assay type: biochemical, Streptomyces ipomoeae
[6] = substrate: O=C(O)c1ccccc1N[C@@H]1O[C@H](COP(=O)(O)O)[C@@H](O)[C@H]1O; test: PRA isomerase steady-state kinetics; assay type: biochemical, Jonesia denitrificans
[7] = substrate: NC(=O)c1ncn([C@@H]2O[C@H](COP(=O)(O)O)[C@@H](O)[C@H]2O)c1N=CN[C@@H]1O[C@H](COP(=O)(O)O)[C@@H](O)[C@H]1O; test: ProFAR isomerase steady-state kinetics; assay type: biochemical, Mycolicibacterium smegmatis; settings: pH 7.5
[8] = substrate: O=C(O)c1ccccc1N[C@@H]1O[C@H](COP(=O)(O)O)[C@@H](O)[C@H]1O; test: PRA isomerase steady-state kinetics; assay type: biochemical, Mycolicibacterium smegmatis; settings: pH 7.5
[9] = substrate: NC(=O)c1ncn([C@@H]2O[C@H](COP(=O)(O)O)[C@@H](O)[C@H]2O)c1N=CN[C@@H]1O[C@H](COP(=O)(O)O)[C@@H](O)[C@H]1O; test: ProFAR isomerase steady-state kinetics; assay type: biochemical, Streptomyces ipomoeae
[10] = substrate: O=C(O)c1ccccc1N[C@@H]1O[C@H](COP(=O)(O)O)[C@@H](O)[C@H]1O; test: PRA isomerase steady-state kinetics; assay type: biochemical, Streptomyces sp. C
[11] = substrate: NC(=O)c1ncn([C@@H]2O[C@H](COP(=O)(O)O)[C@@H](O)[C@H]2O)c1N=CN[C@@H]1O[C@H](COP(=O)(O)O)[C@@H](O)[C@H]1O; test: ProFAR isomerase steady-state kinetics; assay type: biochemical, Streptomyces sp. C
[12] = substrate: O=C(O)c1ccccc1N[C@@H]1O[C@H](COP(=O)(O)O)[C@@H](O)[C@H]1O; test: PRA isomerase steady-state kinetics; assay type: biochemical, Streptomyces globisporus
[13] = substrate: NC(=O)c1ncn([C@@H]2O[C@H](COP(=O)(O)O)[C@@H](O)[C@H]2O)c1N=CN[C@@H]1O[C@H](COP(=O)(O)O)[C@@H](O)[C@H]1O; test: ProFAR isomerase steady-state kinetics; assay type: biochemical, Streptomyces globisporus

Molecule: PriB_SMg1 (Streptomyces sp.)
- Km [1]: 13.2 ± 3.4 µM
- kcat [1]: 0.92 ± 0.19 s⁻¹
- kcat/Km [1]: 69000 M⁻¹ s⁻¹
- Km [2]: 129.6 ± 34 µM
- kcat [2]: 0.29 ± 0.04 s⁻¹
- kcat/Km [2]: 2200 M⁻¹ s⁻¹

B1: PriB_Ssvi (Streptomyces sviceus ATCC 29083) (protein)
chain: MPSKLSRLELLPAVDVRDGQAVRLVHGESGTETSYGSPLEAALSWQRAGAEWLHLVDLDAAFGTGDNRELVRQVTEAMDIKVELSGGIRDDASLAAALATGCTRVNLGTAALESPEWVAKVIAEHGDRIAVGLDVRGTTLKGRGWTSEGGDLYEALERLDKEGCARYVVTDIAKDGTLQGPNLELLRNVCAATDRPVVASGGVSSLDDLRAIAELVPLGVEGSIVGKALYAKAFTLEEALEAVAQ
- Km [3]: 3.9 ± 0.89 µM
- kcat [3]: 0.69 ± 0.04 s⁻¹
- kcat/Km [3]: 180000 M⁻¹ s⁻¹
- Km [4]: 24.5 ± 4.0 µM
- kcat [4]: 1.6 ± 0.29 s⁻¹
- kcat/Km [4]: 67000 M⁻¹ s⁻¹

B2: TrpF-3_Sipo (Streptomyces ipomoeae 91-03) (protein)
chain: MSVSNSNDSLFIKICGLRTERDVDTAVEAGADAVGFVFSASPRQIDADTAARLCDRVPEHVLTVGVFRDEPLRDVRSFATDSGIRAVQLHGPEDRAYYDDLAKGDWTLIRAAAFGDTVPRCGEFGEDMLLIDAPVPGSGIAWDWSSKPLAGSGERWILAGGLSPENVRDAVAATQPWGVDVSSGVELSRGVKDPALITEFVKAVRGGC
- Km [5]: 23.0 ± 1.3 µM
- kcat [5]: 4.3 ± 0.35 s⁻¹
- kcat/Km [5]: 190000 M⁻¹ s⁻¹

B3: TrpF-3_Jden (Jonesia denitrificans DSM 20603) (protein)
chain: MYIKVCGLTDPHAIDAAQAAHVDAIGFVHAPTSPRHLTPPHISTLTATVDCTIDTVLVVATTPIADALALAESTGVSVLQLHGQYSDDDVAYAAARFPRVWRATSLSASPNLTVGAYGEELLLLDAPQAGSGHTWDFAALAHRRPTGRWLLAGGLTPDNVADAITTTSPWGVDVSSGVESAPGVKDPAKIAAFVQAARGVSCPR
- Km [6]: 16.8 ± 3.3 µM
- kcat [6]: 27 ± 1.6 s⁻¹
- kcat/Km [6]: 1.6e+06 M⁻¹ s⁻¹

B4: TrpF-3_Ssvi (Streptomyces sviceus ATCC 29083) (protein)
chain: MTLFVKICGLRTEQDVDTAVEAGADAIGFVFSDSPRRIDPAAAARLAARIPESVLTVGVFRREPLEYVRSVAAESGIGAVQLHGPEDRAYYDELSGGGWTLIRAAAFGDRVPRCGELGEDMLLLDAPVPGSGIAWDWSRKQVAGAGEKWLLAGGLTPENVREAVDVTRPWGVDVSSGVEASRGVKNPALITAFVEAARAGAVTSG
- Km [4]: 9.4 ± 0.47 µM
- kcat [4]: 0.82 ± 0.08 s⁻¹
- kcat/Km [4]: 88000 M⁻¹ s⁻¹

B5: PriA_Msme (Mycolicibacterium smegmatis MC2 155) (protein)
chain: MATGATEAAGAGKRGLILLPAVDVVNGQAVRLVQGKAGSETDYGSAIEAAEAWQRDGAEWIHLVDLDAAFGRGSNRELLAEVVGKLDVAVELSGGIRDDESLRAALDTGCARVNIGTAALENPQWCARAIAEHGDRVAVGLDAQTDGAGGFRLRGRGWETDGGDLWEVLDRLDSEGCSRYVVTDVSKDGTLTGPNLDLLAAVAGRTDAPVIASGGVSSLDDLRAIATLTGVGVEGAIVGKALYAGRFTLPQALSAVSG
- Km [7]: 2.6 ± 0.5 µM
- kcat [7]: 0.85 ± 0.04 s⁻¹
- kcat/Km [7]: 330000 M⁻¹ s⁻¹
- Km [8]: 7.9 ± 2.4 µM
- kcat [8]: 3.1 ± 0.43 s⁻¹
- kcat/Km [8]: 390000 M⁻¹ s⁻¹

B6: PriB_Sipo (Streptomyces ipomoeae 91-03) (protein)
chain: MAKLELLPAVDVRDGQAVRLVHGESGTETSYGSPLEAALAWQRAGAEWLHLVDLDAAFGTGDNRDLVAEVTRAMDIKVELSGGIRDDASLAKALATGCTRVNLGTAALETPEWVAKVIAEHGDKIAVGLDVKGTTLRGRGWTRDGGDLYETLERLDKEGCARYVVTDIAKDGTLQGPNLELLRNVCAATDRPVVASGGVSSLDDLRAIAELVPLGVEGAIVGKALYAKAFTLEEALEATS
- Km [9]: 3.8 ± 0.2 µM
- kcat [9]: 0.82 ± 0.02 s⁻¹
- kcat/Km [9]: 210000 M⁻¹ s⁻¹
- Km [5]: 60.8 ± 1.1 µM
- kcat [5]: 8.25 ± 0.4 s⁻¹
- kcat/Km [5]: 140000 M⁻¹ s⁻¹

B7: PriB_SspC (Streptomyces sp. C) (protein)
chain: MPNTLELLPAVDVRDGQAVRLVHGVSGSETSYGSPLEAALAWQASGAEWLHLVDLDAAFGTGDNRALVADITRAMDIKVELSGGIRDDATLAAALATGCTRVNLGTAALETPEWAAKAIAEHGDRIAIGLDVRGTTLKGRGWTSEGGDLYETLARLDSEGCARYVVTDIGKDGTLTGPNLELLKNVCAATDRPVVASGGVSSLDDLRALSELVPLGVEGAIVGKALYAKAFTLEEALEAVRA
- Km [10]: 149.9 ± 29 µM
- kcat [10]: 1.4 ± 0.12 s⁻¹
- kcat/Km [10]: 9000 M⁻¹ s⁻¹
- Km [11]: 11.4 ± 3.4 µM
- kcat [11]: 2.53 ± 0.74 s⁻¹
- kcat/Km [11]: 220000 M⁻¹ s⁻¹

B8: PriA_Sglo (Streptomyces globisporus) (protein)
chain: MPKLELLPAVDVRDGQAVRLVHGESGSETSYGSPLEAALAWQSAGAEWLHLVDLDAAFGTGDNRALIAEVAGAMDIKVELSGGIRDDASLEAALATGCRRVNLGTAALETPEWVAKVIAEHGDKIAVGLDVRGTTLRGRGWTRDGGDLYETLARLDAEGCARYVVTDIAKDGTLEGPNLGLLRDVCAVTDRPVVASGGVSSLDDLRAISLLVPEGVEGAIVGKALYAKAFTLEEALKAVAA
- Km [12]: 11 ± 1.0 µM
- kcat [12]: 3.8 ± 0.2 s⁻¹
- kcat/Km [12]: 340000 M⁻¹ s⁻¹
- Km [13]: 4.2 ± 0.8 µM
- kcat [13]: 0.74 ± 0.03 s⁻¹
- kcat/Km [13]: 180000 M⁻¹ s⁻¹
